From patent US20250368686A1, “PEPTIDE DRUGS FOR S[…] D[…] BLOCKING HOMO- AND HETERO-DIMERIZATION OF OPIOID RECEPTORS” (OKINAWA INSTITUTE OF SCIENCE AND TECHNOLOGY SCHOOL …, priority 2022, published 2025)

Tests used:
[1] = biological target: SNAPf-DOR: rat DOR with the SNAPf tag protein at its N-terminus, expressed in the PM of CHO-K1 cells (Example 2) (rat) (UniProt P33533); experiment: single-molecule imaging, PCCF fit; copies/um2
[2] = biological target: SNAPf-DOR: rat DOR with the SNAPf tag protein at its N-terminus, expressed in the PM of CHO-K1 cells (Example 2) (rat) (UniProt P33533); experiment: single-molecule imaging, homodimer 2D-KD; copies/um2; + agonist
[3] = biological target: SNAPf-DOR: rat DOR with the SNAPf tag protein at its N-terminus, expressed in the PM of CHO-K1 cells (Example 2) (rat) (UniProt P33533); experiment: single-molecule imaging, homodimer 2D-KD; copies/um2; - agonist
[4] = biological target: µ-type opioid receptor (MOR), rat, wild type, fluorescently tagged, expressed in the PM of CHO-K1 cells (Example 1) (rat) (UniProt P33535); experiment: distribution of colocalisation durations with WT-MOR; single-molecule imaging
[5] = biological target: δ-type opioid receptor (DOR), rat, wild type, fluorescently tagged, expressed in the PM of CHO-K1 cells (Example 1) (rat) (UniProt P33533); experiment: distribution of colocalisation durations with WT-DOR; single-molecule imaging

Q: For “SNAPf-DOR: rat DOR with the SNAPf tag protein at its N-terminus, expressed in the PM of CHO-K1 cells (Example 2) (from UniProt P33533 1-372)”, which Kd [1] is on record?
A: 7.91 ?

Q: What about the Kd [2] of the same substance?
A: 3.58 ?

Q: What about the Kd [3] of the same substance?
A: 7.91 ?

Q: How did the dimer lifetime (τ2) [4] turn out when “DORΔ22-42 (DOR N-terminal deletion mutant) (from UniProt P33533 1-21; P33533 43-372) (receptor)” was run?
A: 88 ms

Q: Which dimer lifetime (τ2) [5] does the source give for “MORΔ32-61 (MOR N-terminal deletion mutant) (from UniProt P33535 1-31; P33535 62-398) (receptor)” here?
A: 91 ms
